Source: paper PMC11754618 (2025)
Changes are numbered by the printed parent chain.

T1: His6-Mm.USP18 (46-368) (mouse, UniProt Q9WTV6 46-368)
T1 chain: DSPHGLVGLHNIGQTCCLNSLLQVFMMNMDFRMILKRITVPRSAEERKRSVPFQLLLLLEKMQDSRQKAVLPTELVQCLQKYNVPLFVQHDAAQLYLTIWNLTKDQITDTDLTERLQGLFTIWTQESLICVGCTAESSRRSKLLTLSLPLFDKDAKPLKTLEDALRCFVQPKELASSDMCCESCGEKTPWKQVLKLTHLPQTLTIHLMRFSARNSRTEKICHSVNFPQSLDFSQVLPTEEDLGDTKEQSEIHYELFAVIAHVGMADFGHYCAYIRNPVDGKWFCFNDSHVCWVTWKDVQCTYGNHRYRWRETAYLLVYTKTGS

T2: His6-Hs.USP18 (16-372) (human, UniProt Q9UMW8 16-372)
T2 chain: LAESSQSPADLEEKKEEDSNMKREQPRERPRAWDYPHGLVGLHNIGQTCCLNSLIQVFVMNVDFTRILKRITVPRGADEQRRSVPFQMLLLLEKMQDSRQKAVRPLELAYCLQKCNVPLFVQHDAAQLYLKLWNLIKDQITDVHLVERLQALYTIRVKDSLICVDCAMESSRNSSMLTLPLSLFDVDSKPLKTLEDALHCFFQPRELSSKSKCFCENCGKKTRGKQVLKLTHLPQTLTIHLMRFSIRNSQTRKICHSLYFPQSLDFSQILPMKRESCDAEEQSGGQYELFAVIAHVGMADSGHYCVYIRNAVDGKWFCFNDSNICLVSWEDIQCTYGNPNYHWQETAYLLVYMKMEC

B1: Ac-mISG15CTD[R153Phe(guan)]-OH (domain or fragment)
chain: LSILVRNERGHSNIYEVFLTQTVDTLKKKVSQREQVHEDQFWLSFEGRPMEDKELLGEYGLKPQSTVIKHLRLFG
modifications: N-terminal acetyl; Phe(guan) (guanidino-phenylalanine) at 153
B2: Ac-mISG15CTD[R153Agb]-OH (domain or fragment)
chain: B1 chain with F74X
modifications: N-terminal acetyl; Agb (2-amino-4-guanidino-butyric acid) at 153
B3: Ac-mISG15CTD-OH (wild type) (domain or fragment)
chain: B1 chain with F74R
modifications: N-terminal acetyl

Target: T1, His6-Mm.USP18 (46-368)
Experiment: SPR

| Kd [nM] | Binder |
| --- | --- |
| 1750 | B1 |
| 4500 | B2 |
| 2500 | B3 |

Target: T2, His6-Hs.USP18 (16-372)
Experiment: SPR

| Kd [nM] | Binder |
| --- | --- |
| 1900 | B1 |
| 1200 | B2 |
| 4300 | B3 |
